Laboratory results taken from paper PMC5016661 (The Journal of Biological Chemistry, 2016).

Target: the molecule itself
Experiment: cryo-EM structure; FraC (5 uM) incubated with DOPC LUVs at a protein/lipid ratio of 1:160 for 30 min; vitrified; 1,562 particles; oligomer bound to the vesicles (non-lytic, prepore)

B1: fragaceatoxin C (natural protein)
chain: ADVAGAVIDGAGLGFDVLKTVLEALGNVKRKIAVGIDNESGKTWTAMNTYFRSGTSDIVLPHKVAHGKALLYNGQKNRGPVATGVVGVIAYSMSDGNTLAVLFSVPYDYNWYSNWWNVRVYKGQKRADQRMYEELYYHRSPFRGDNGWHSRGLGYGLKSRGFMNSSGHAILEIHVTKA
notes: also called FraC; WT FraC; source: E. coli BL21 (DE3), purified (ion-exchange and size-exclusion chromatography)
stoichiometry N: 8
